Source: patent US20240132578A1 (published 2024)

Assays:
[1] = molecular target: HIV-1 92BR020 envelope protein (Env) on pseudotyped virus (HIV-1 strain 92BR020); test: cell-based or functional assay
[2] = molecular target: aMLV envelope on pseudotyped virus (negative control) (aMLV); test: cell-based or functional assay
[3] = molecular target: HIV-1 IAVI_C22 envelope protein (Env) on pseudotyped virus (HIV-1 strain IAVI C22); test: cell-based or functional assay
[4] = molecular target: HIV-1 92TH021 envelope protein (Env) on pseudotyped virus (HIV-1 strain 92TH021); test: cell-based or functional assay
[5] = molecular target: HIV-1 JR-CSF envelope protein (Env) on pseudotyped virus (HIV-1 isolate JR-CSF, UniProt P20871 32-848); test: cell-based or functional assay
[6] = molecular target: HIV-1 NL43 envelope protein (Env) on pseudotyped virus (HIV-1 strain NL43); test: cell-based or functional assay
[7] = molecular target: HIV-1 94UG103 envelope protein (Env) on pseudotyped virus (HIV-1 strain 94UG103); test: cell-based or functional assay
[8] = molecular target: HIV-1 93IN905 envelope protein (Env) on pseudotyped virus (HIV-1 strain 93IN905); test: cell-based or functional assay
[9] = molecular target: HIV-1 SF162 envelope protein (Env) on pseudotyped virus (HIV-1 isolate SF162, UniProt P19550 32-847); test: cell-based or functional assay
[10] = molecular target: T1, recombinant, monomeric gp120 JR-CSF (HIV-1, UniProt P20871 32-503); test: screening ELISA on recombinant gp120 (column mAb Specificity)
T1 construct: domain: gp120; also called JR-CSF gp120

[11] = molecular target: HIV-1 CMU02 Env (CRF01_AE pseudovirus) (HIV-1); test: cell-based or functional assay
[12] = molecular target: HIV-1 APV-17 Env (clade B pseudovirus) (HIV-1); test: cell-based or functional assay
[13] = molecular target: HIV-1 92BR020 Env (clade B pseudovirus) (HIV-1); test: cell-based or functional assay
[14] = molecular target: aMLV envelope (negative control pseudovirus); test: cell-based or functional assay
[15] = molecular target: HIV-1 92UG005 Env (clade D pseudovirus) (HIV-1); test: cell-based or functional assay
[16] = molecular target: HIV-1 93IN905 Env (clade C pseudovirus) (HIV-1); test: cell-based or functional assay
[17] = molecular target: HIV-1 92RW020 Env (clade A pseudovirus) (HIV-1); test: cell-based or functional assay
[18] = molecular target: HIV-1 IAVI-C18 Env (clade C pseudovirus) (HIV-1); test: cell-based or functional assay
[19] = molecular target: HIV-1 93UG077 Env (clade A pseudovirus) (HIV-1); test: cell-based or functional assay
[20] = molecular target: HIV-1 IAVI-C3 Env (clade C pseudovirus) (HIV-1); test: cell-based or functional assay
[21] = molecular target: HIV-1 JRCSF Env (clade B pseudovirus) (HIV-1, UniProt P20871 32-848); test: cell-based or functional assay
[22] = molecular target: HIV-1 IAVI-C22 Env (clade C pseudovirus) (HIV-1); test: cell-based or functional assay
[23] = molecular target: HIV-1 92UG024 Env (clade D pseudovirus) (HIV-1); test: cell-based or functional assay
[24] = molecular target: HIV-1 94UG103 Env (clade A pseudovirus) (HIV-1); test: cell-based or functional assay
[25] = molecular target: HIV-1 APV-13 Env (clade B pseudovirus) (HIV-1); test: cell-based or functional assay
[26] = molecular target: HIV-1 APV-6 Env (clade B pseudovirus) (HIV-1); test: cell-based or functional assay
[27] = molecular target: HIV-1 92TH021 Env (CRF01_AE pseudovirus) (HIV-1); test: cell-based or functional assay
recombinant gp41 HxB2 = molecular target: T2, recombinant gp41 HxB2 (HIV-1, UniProt P04578 541-682); test: screening ELISA on recombinant gp41 (column mAb Specificity)
T2 construct: domain: gp41

[28] = molecular target: T3, HIV-1 YU2 gp160 expressed on the cell surface (HIV-1 strain YU2, UniProt P35961 32-843); test: flow cytometry on transfected cells (FIG. 8)
T3 construct: whole, on cells

recombinant gp41HxB2 = molecular target: T4, recombinant gp41HxB2 (HIV-1 clone HxB2, UniProt P04578 541-682); test: ELISA, initial screen of B cell culture supernatants
T4 construct: domain: gp41

[29] = molecular target: T5, recombinant, monomeric gp120JR-CSF (HIV-1 isolate JR-CSF, UniProt P20871 32-503); test: as above
T5 construct: domain: gp120; also called JR-CSF gp120; JR-CSFgp120

[30] = molecular target: T6, V3 deleted HIV-1JR-CSF Env expressed on transfected cells (HIV-1 strain JR-CSF, UniProt P20871 32-848); test: flow cytometry on transfected 293T cells (FIG. 13E)
T6 construct: whole, on cells; also called variable loop deleted HIV-1JR-CSF variant (V3)

[31] = molecular target: T7, V1/V2 deleted HIV-1JR-CSF Env expressed on transfected cells (HIV-1 strain JR-CSF, UniProt P20871 32-848); test: as above
T7 construct: whole, on cells; also called variable loop deleted HIV-1JR-CSF variant (V1/V2)

Row | Binder | IC50 (µg/mL), pseudovirus neutralization [11] | IC50 (µg/mL), pseudovirus neutralization [12] | IC50 (µg/mL), pseudovirus neutralization [13] | IC50 (µg/mL), pseudovirus neutralization [14] | IC50 (µg/mL), pseudovirus neutralization [15] | IC50 (µg/mL), pseudovirus neutralization [17] | IC50 (µg/mL), pseudovirus neutralization [18] | IC50 (µg/mL), pseudovirus neutralization [19] | IC50 (µg/mL), pseudovirus neutralization [20] | IC50 (µg/mL), pseudovirus neutralization [21] | IC50 (µg/mL), pseudovirus neutralization [24] | IC50 (µg/mL), pseudovirus neutralization [25] | IC50 (µg/mL), pseudovirus neutralization [26] | binding result (recombinant gp41 HxB2) | binding result (recombinant gp41HxB2) | also measured
1 | 1460_G14 (PGG14) (antibody, human IgG1, kappa, V domains shown) VH: QVLLVQSGTEVKKPGSSVKVSCQASGGAFSSYAFSWVRQAPGQGLEWMGMITPVFGETKYAPRFQGRLTLTAEESLSTTYMELRSLTSDDTAFYYCTRDRRVVPMATDNWLDPWGQGTLVTVSS VL: DIQLTQSPSSLSASVGDRVTVTCRASQTIHTYLNWYQQIPGKAPKLLIYGASTLQSGVPSRFSGSGSGTDFTLTINSLQPEDFATYYCQQSYSTPRTFGQGTRLDIKR | – | – | – | – | – | – | – | – | – | – | – | – | – | – | – | IC50, Neutralizing Antibody Assay, Virus/Ab Incubation 1 hour [1]: > 50 µg/mL; IC50, Neutralizing Antibody Assay, Virus/Ab Incubation 18 hour [1]: > 50 µg/mL; IC50, Neutralizing Antibody Assay, Virus/Ab Incubation 1 hour [2]: > 50 µg/mL; IC50, Neutralizing Antibody Assay, Virus/Ab Incubation 18 hour [2]: > 50 µg/mL; IC50, Neutralizing Antibody Assay, Virus/Ab Incubation 1 hour [3]: > 50 µg/mL; IC50, Neutralizing Antibody Assay, Virus/Ab Incubation 18 hour [3]: > 50 µg/mL; IC50, Neutralizing Antibody Assay, Virus/Ab Incubation 1 hour [4]: > 50 µg/mL; IC50, Neutralizing Antibody Assay, Virus/Ab Incubation 18 hour [4]: > 50 µg/mL; IC50, Neutralizing Antibody Assay, Virus/Ab Incubation 1 hour [5]: > 50 µg/mL; IC50, Neutralizing Antibody Assay, Virus/Ab Incubation 18 hour [5]: > 50 µg/mL; IC50, Neutralizing Antibody Assay, Virus/Ab Incubation 1 hour [6]: 0.17 µg/mL; IC50, Neutralizing Antibody Assay, Virus/Ab Incubation 18 hour [6]: 0.05 µg/mL; IC50, Neutralizing Antibody Assay, Virus/Ab Incubation 1 hour [7]: > 50 µg/mL; IC50, Neutralizing Antibody Assay, Virus/Ab Incubation 18 hour [7]: > 50 µg/mL; IC50, Neutralizing Antibody Assay, Virus/Ab Incubation 1 hour [8]: > 50 µg/mL; IC50, Neutralizing Antibody Assay, Virus/Ab Incubation 18 hour [8]: 3.17 µg/mL; IC50, Neutralizing Antibody Assay, Virus/Ab Incubation 1 hour [9]: 0.179 µg/mL; IC50, Neutralizing Antibody Assay, Virus/Ab Incubation 18 hour [9]: 0.0573 µg/mL
2 | 1443_C16 (PG16) (TCN-116) (antibody, V domains shown) VH: QEQLVESGGGVVQPGGSLRLSCLASGFTFHKYGMHWVRQAPGKGLEWVALISDDGMRKYHSDSMWGRVTISRDNSKNTLYLQFSSLKVEDTAMFFCAREAGGPIWHDDVKYYDFNDGYYNYHYMDVWGKGTTVTVSS VL: QSALTQPASVSGSPGQTITISCNGTSSDVGGFDSVSWYQQSPGKAPKVMVFDVSHRPSGISNRFSGSKSGNTASLTISGLHIEDEGDYFCSSLTDRSHRIFGGGTKVTVLG [1443_C16 (PG16) (TCN-116), listing 1 of 2 here] | > 50 µg/mL | > 50 µg/mL | > 50 µg/mL | > 50 µg/mL | > 50 µg/mL | 0.004 µg/mL | 0.007 µg/mL | > 50 µg/mL | 14.8 µg/mL | < 0.0025 µg/mL | 0.008 µg/mL | > 50 µg/mL | 0.08 µg/mL | no binding | – | binding result [10]: no binding; IC50 (µg/mL), pseudovirus neutralization [16]: 0.1 µg/mL; IC50 (µg/mL), pseudovirus neutralization [22]: 0.069 µg/mL; IC50 (µg/mL), pseudovirus neutralization [23]: > 50 µg/mL; IC50 (µg/mL), pseudovirus neutralization [27]: 0.13 µg/mL
3 | 1443_C16 (PG16) (TCN-116) (antibody, V domains shown) VH: QEQLVESGGGVVQPGGSLRLSCLASGFTFHKYGMHWVRQAPGKGLEWVALISDDGMRKYHSDSMWGRVTISRDNSKNTLYLQFSSLKVEDTAMFFCAREAGGPIWHDDVKYYDFNDGYYNYHYMDVWGKGTTVTVSS VL: QSALTQPASVSGSPGQTITISCNGTSSDVGGFDSVSWYQQSPGKAPKVMVFDVSHRPSGISNRFSGSKSGNTASLTISGLHIEDEGDYFCSSLTDRSHRIFGGGTKVTVLG [1443_C16 (PG16) (TCN-116), listing 2 of 2 here] | – | – | – | – | – | – | – | – | – | – | – | – | – | – | no binding | binding result [28]: binds; binding result [29]: no binding; binding result [30]: no binding; binding result [31]: no binding
4 | 1496_C09 (PG9) (TCN-109) (antibody, V domains shown) VH: QRLVESGGGVVQPGSSLRLSCAASGFDFSRQGMHWVRQAPGQGLEWVAFIKYDGSEKYHADSVWGRLSISRDNSKDTLYLQMNSLRVEDTATYFCVREAGGPDYRNGYNYYDFYDGYYNYHYMDVWGKGTTVTVSS VL: QSALTQPASVSGSPGQSITISCNGTSNDVGGYESVSWYQQHPGKAPKVVIYDVSKRPSGVSNRFSGSKSGNTASLTISGLQAEDEGDYYCKSLTSTRRRVFGTGTKLTVLG [1496_C09 (PG9) (TCN-109), listing 1 of 2 here] | > 50 µg/mL | 26.4 µg/mL | > 50 µg/mL | > 50 µg/mL | > 50 µg/mL | 0.06 µg/mL | 0.05 µg/mL | > 50 µg/mL | 12.9 µg/mL | < 0.0025 µg/mL | 0.17 µg/mL | > 50 µg/mL | 0.09 µg/mL | no binding | – | –
5 | 1496_C09 (PG9) (TCN-109) (antibody, V domains shown) VH: QRLVESGGGVVQPGSSLRLSCAASGFDFSRQGMHWVRQAPGQGLEWVAFIKYDGSEKYHADSVWGRLSISRDNSKDTLYLQMNSLRVEDTATYFCVREAGGPDYRNGYNYYDFYDGYYNYHYMDVWGKGTTVTVSS VL: QSALTQPASVSGSPGQSITISCNGTSNDVGGYESVSWYQQHPGKAPKVVIYDVSKRPSGVSNRFSGSKSGNTASLTISGLQAEDEGDYYCKSLTSTRRRVFGTGTKLTVLG [1496_C09 (PG9) (TCN-109), listing 2 of 2 here] | – | – | – | – | – | – | – | – | – | – | – | – | – | – | no binding | –
